No end group written: not given here.

The target of test [1] is T1, synthetic Aβ1-42 (aggregated in the ELISAs) (human, UniProt P05067 672-713).
T1 construct: range 672-713; also called aggregated Aβ1-42; aggregated synthetic Aβ1-42
Kind of test: competitive Aβ1-42 ELISA, competitor biotin conjugated m12A11Cγ2a (FIG. 12).

Test [2] concerns the target T1, synthetic Aβ1-42 (aggregated in the …). Kind of test: competitive Aβ1-42 ELISA; competitor: biotin conjugated m12A11Cγ2a at a fixed concentration.
For test [3], the target named is T2, biotinylated DAE peptide (immobilized Aβ peptide) (human, UniProt P05067 672-681, limits assumed, also: biotinylated, site not given here).
T2 construct: domain: Aβ peptide (bio-DAE peptide; bio-DAE10); Immobilized on streptavidin biosensor chips for BIAcore; also called bio-DAE peptide; bio-DAE10
T2 peptide (looked up): DAEFRHDSGY
Kind of test: BIAcore (SPR), biotinylated DAE peptide on streptavidin chip, antibody in solution; bivalent model, global analysis.

Test [4] deals with T1, synthetic Aβ1-42 (aggregated in the …). Briefly: Aβ 1-42 binding ELISA.

B1: humanized 12A11 version 1 (antibody, V domains shown)
VH: QVQLVESGGGVVQPGRSLRLSCAFSGFSLSTSGMSVGWIRQAPGKGLEWLAHIWWDDDKYYNPSLKSRLTISKDTSKNTVYLQMNSLRAEDTAVYYCARRTTTADYFAYWGQGTTVTVSS
VL: DVVMTQSPLSLPVTPGEPASISCRSSQSIVHSNGNTYLEWYLQKPGQSPQLLIYKVSNRFSGVPDRFSGSGSGTDFTLKISRVEAEDVGVYYCFQSSHVPLTFGQGTKLEIK
notes: Variable domains only; also called h12A11v1; 12A11v1
On to B1, for which the “IC50 fold against murine and chimeric 12A11” value in test [1] is no more than 2 fold. Besides, the “IC50 (read off the curve)” value in test [2] is roughly 1 µg/mL. In test [3], this molecule gave a Ka of 4.29e+07 M⁻¹, a Kd of 23.3 nM, a koff of 0.00343 s⁻¹ and a kon of 147000 M⁻¹ s⁻¹.

B2: humanized 3D6 (antibody, V domains shown)
VH: EVQLVESGGGLVQPGGSLRLSCAGSGFTFSNYGMSWVRQAPGKGLEWVASIRSGGGRTYYSDNVKGRFTISRENAKNSLYLQMNSLRAEDTAVYYCVRYDHYSGSSDYWGQGTLVTVSS
VL: DVVMTQSPLSLPVTLGQPASISCKSSQSLLDSDGKTYLNWLQQRPGQSPRRLIYLVSKLDSGVPDRFSGSGSGTDFTLKISRVEAEDVGVYYCWQGTHFPRTFGGGTKVEIKR
For the molecule B2, in test [4], the “EC50 (read off the curve)” value is roughly 0.04 µg/mL.

These data come from patent publication US20060198851A1 (Janssen / Centocor, published 2006).
